{"source": "patent US20150239961A1", "key": {"[1]": {"target": "recombinant AE.A244 Δ11 gp120 (HIV-1 AE.A244)", "experiment": "SPR (BIAcore 3000), mAb captured by anti-human Ig Fc, gp120 in flow"}, "[2]": {"target": "HIV-1 B.JRFL gp120 Env (HIV-1 B.JRFL)", "experiment": "blocking assay on JRFL gp120, competitor b12"}, "[3]": {"target": "Env on the surface of HIV-1 AE.CM235-infected cells (HIV-1 AE.CM235)", "experiment": "cell-based or functional assay"}, "[4]": {"target": "HIV-1 AE.A244 gp120 envelope glycoprotein (HIV-1 AE.A244)", "experiment": "blocking assay on A244 gp120, competitor sCD4"}, "[5]": {"target": "HIV-1 B.JRFL gp120 Env (HIV-1 B.JRFL)", "experiment": "blocking assay on JRFL gp120, competitor sCD4"}, "[6]": {"target": "recombinant AE.A244 Δ11 gp120 (HIV-1 AE.A244)", "experiment": "SPR synergy assay (BIAcore 4000), CH58 immobilized on CM5 chip, mAb-gp120 complex injected"}, "[7]": {"target": "Env on the surface of HIV-1 AE.CM235-infected cells (HIV-1 AE.CM235)", "experiment": "flow cytometry, Alexa Fluor 488-CH58 with CH90 F(ab), HIV-1-infected CD4+ T cells (FIG. 14B-E)"}, "[8]": {"target": "Env on the surface of HIV-1 AE.92TH023-infected primary CD4+ T cells (HIV-1 AE.92TH023)", "experiment": "flow cytometry, Alexa Fluor 488-CH58 with CH90 F(ab), HIV-1-infected CD4+ T cells (FIG. 14B-E)"}, "[9]": {"target": "Env on the surface of HIV-1 AE.92TH023-infected primary CD4+ T cells (HIV-1 AE.92TH023)", "experiment": "flow cytometry, Alexa Fluor 488-CH58 with unconjugated mAb, 10 µg/ml each, AE.92TH023-infected CD4+ T cells"}, "[10]": {"target": "Env on the surface of HIV-1 AE.CM235-infected cells (HIV-1 AE.CM235)", "experiment": "flow cytometry, Alexa Fluor 488-CH58 with unconjugated mAb, 10 µg/ml each, AE.CM235-infected CD4+ T cells"}}, "note": "pKd: −log10 of the molar value.", "data": [{"substance": "A32 (antibody)", "values": [{"measurement": "pKd", "setting": "[1]", "value": 9.15}, {"measurement": "koff", "setting": "[1]", "value": 0.00015, "unit": "s⁻¹"}, {"measurement": "kon", "setting": "[1]", "value": 223000, "unit": "M⁻¹ s⁻¹"}, {"measurement": "% blocking of b12 binding", "setting": "[2]", "value": 23, "unit": "%"}, {"measurement": "ADCC EC (3 hr Luciferase ADCC)", "setting": "[3]", "value": 0.003, "unit": "µg/mL"}, {"measurement": "maximum % GzB activity (ADCC-CM235 assay)", "setting": "[3]", "value": 16, "unit": "%"}, {"measurement": "% blocking of sCD4 binding", "setting": "[4]", "value": 29, "unit": "%"}]}, {"substance": "VRC-CH31 (antibody)", "values": [{"measurement": "% blocking of sCD4 binding", "setting": "[5]", "value": 67, "unit": "%"}, {"measurement": "% blocking of b12 binding", "setting": "[2]", "value": 70, "unit": "%"}, {"measurement": "% blocking of sCD4 binding", "setting": "[4]", "value": 97, "unit": "%"}]}, {"substance": "CH58 (antibody)", "values": [{"measurement": "pKd", "setting": "[1]", "value": 9.00}, {"measurement": "koff", "setting": "[1]", "value": 0.00023, "unit": "s⁻¹"}, {"measurement": "kon", "setting": "[1]", "value": 226000, "unit": "M⁻¹ s⁻¹"}, {"measurement": "% increase in binding with gp120 pre-incubated with CH54, against gp120 with murine 16H3 mAb", "setting": "[6]", "value": 14, "unit": "%"}, {"measurement": "% increase in binding with gp120 pre-incubated with CH57, against gp120 with murine 16H3 mAb", "setting": "[6]", "value": 59, "unit": "%"}, {"measurement": "% increase in binding with gp120 pre-incubated with CH90, against gp120 with murine 16H3 mAb", "setting": "[6]", "value": 12, "unit": "%"}, {"measurement": "% enhancement of CH58 binding in the presence of CH90 F(ab)", "setting": "[7]", "value": "< 10", "unit": "%"}, {"measurement": "% enhancement of CH58 binding in the presence of CH90 F(ab)", "setting": "[8]", "value": "< 10", "unit": "%"}, {"measurement": "% increase in the frequency of cells recognized by CH58 in the presence of A32, against CH58 alone", "setting": "[9]", "value": "> 40", "unit": "%"}, {"measurement": "% increase in the frequency of cells recognized by CH58 in the presence of CH57, against CH58 alone", "setting": "[9]", "value": "> 40", "unit": "%"}, {"measurement": "% increase in the frequency of cells recognized by CH58 in the presence of CH90, against CH58 alone", "setting": "[9]", "value": "> 40", "unit": "%"}, {"measurement": "% Max Killing, mAb alone (Luciferase ADCC)", "setting": "[3]", "value": 18.8, "unit": "%"}, {"measurement": "ADCC EC (3 hr Luciferase ADCC)", "setting": "[3]", "value": 9.68, "unit": "µg/mL"}, {"measurement": "EC, mAb alone (Luciferase ADCC)", "setting": "[3]", "value": 9.13, "unit": "µg/mL"}, {"measurement": "PC75, mAb alone (Luciferase ADCC)", "setting": "[3]", "value": 31.4, "unit": "µg/mL"}, {"measurement": "% increase in frequency of infected cells recognized by CH58 and in MFI in the presence of A32", "setting": "[10]", "value": "< 45", "unit": "%"}, {"measurement": "% increase of CH58 binding in the presence of CH54", "setting": "[10]", "value": "> 20", "unit": "%"}, {"measurement": "% increase of CH58 binding in the presence of CH57", "setting": "[10]", "value": "> 25", "unit": "%"}, {"measurement": "% increase of CH58 binding in the presence of CH90", "setting": "[10]", "value": "> 35", "unit": "%"}]}, {"substance": "A32 Fab", "values": [{"measurement": "inhibition of the ADCC activity mediated by 19/20 non-V3 mAbs (ADCC-CM235 assay)", "setting": "[3]", "value": "73 to 100", "unit": "%"}]}]}
